Test results reported in US20100120675A1 (CONSEJO SUPERIOR DE INVESTIGACIONES CIENTIFICAS, published 2010).

T1: UDG enzyme of E. coli (E. coli, UniProt P12295 2-229)
T1 construct: Commercial enzyme; also called UDG of E. coli (New England Biolabs)
T1 sequence: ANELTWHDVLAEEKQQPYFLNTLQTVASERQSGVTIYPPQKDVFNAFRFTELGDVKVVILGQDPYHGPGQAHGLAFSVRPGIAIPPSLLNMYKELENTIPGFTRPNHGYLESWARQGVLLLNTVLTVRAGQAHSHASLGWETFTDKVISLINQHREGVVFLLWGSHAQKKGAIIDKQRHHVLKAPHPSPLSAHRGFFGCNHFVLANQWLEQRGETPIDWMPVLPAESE

T2: UDG enzyme of B. subtilis (Bacillus subtilis, UniProt P39615 1-225)
T2 construct: Endogenous enzyme of the B. subtilis 110NA extract, identified by peptide mass fingerprinting (MASCOT); also called UDG of B. subtilis; protein D
T2 sequence: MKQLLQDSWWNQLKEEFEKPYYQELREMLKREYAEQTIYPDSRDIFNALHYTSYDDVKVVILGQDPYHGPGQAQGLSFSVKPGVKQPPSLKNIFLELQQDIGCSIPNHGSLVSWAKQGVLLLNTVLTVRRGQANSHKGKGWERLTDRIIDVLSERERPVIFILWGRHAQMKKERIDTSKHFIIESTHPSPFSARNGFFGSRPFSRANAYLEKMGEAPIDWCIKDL

B1: protein p56 of the phi29 (φ29) bacteriophage (other)
chain: MVQNDFVDSYDVTMLLQDDDGKQYYEYHKGLSLSDFEVLYGNTADEIIKLRLDKVL
notes: Untagged, purified as in section 1.4; also called protein of the invention
B2: protein p56FLAG (other)
chain: MVQNDFVDSYDVTMLLQDDDGKQYYEYHKGLSLSDFEVLYGNTADEIIKLRLDKVLDYKDDDDK
notes: Produced constitutively in B. subtilis 110NA[pPR53.p56FLAG]; Captured from the cell lysate on an anti-FLAG M2 column

Legend:
UDG enzyme of E. coli = target: T1, UDG enzyme of E. coli; test: native polyacrylamide gel (16%) of p56 (2 µg) incubated with E. coli UDG (0.2 µg); Western blot and peptide mass fingerprinting of the band
[1] = target: T2, UDG enzyme of B. subtilis; test: affinity chromatography of B. subtilis 110NA[pPR53.p56FLAG] lysate on anti-FLAG M2 column, elution with FLAG peptide, SDS gel, peptide mass fingerprinting
Procedure: In order to analyse whether the UDG enzyme is a cellular target of protein p56, affinity chromatography assays were performed. […] The culture was concentrated 10-fold in TBS buffer (50 mM Tris-HCl, pH 7.5, 150 mM NaCl) and was lysed using the French press (20,000 psi). The lysate was centrifuged at 7,000 rpm and 4° C. in the Sorvall-SS.34 rotor for 10 minutes. The supernatant was loaded in an anti-FLAG M2 column (Sigma). The proteins bound to the column were eluted with the TBS buffer containing the FLAG peptide (500 μg/ml) (Sigma). […] The gel was stained with SyproRuby (Molecular Probes). As a negative control, an extract from the 110NA[pPR53] strain was used.

| Binder | binding result (UDG enzyme of E. coli) | binding result [1] |
| --- | --- | --- |
| B1 | binds |  |
| B2 |  | binds |
